Laboratory results published in publication PMC5899673.

B1: SPIN (Staphylococcal Peroxidase INhibitor) from S. aureus strain Newman (natural protein)
chain: KVYSQNGLVLHDDANFLEHELSYIDVLLDKNADQATKDNLRSYFADKGLHSIKDIINKAKQDGFDVSKYEHVK

target: Native human myeloperoxidase (MPO) isolated from purulent sputum (human) (UniProt P05164); assay: SPR
Sequence of UniProt P05164 (P05164 165-745): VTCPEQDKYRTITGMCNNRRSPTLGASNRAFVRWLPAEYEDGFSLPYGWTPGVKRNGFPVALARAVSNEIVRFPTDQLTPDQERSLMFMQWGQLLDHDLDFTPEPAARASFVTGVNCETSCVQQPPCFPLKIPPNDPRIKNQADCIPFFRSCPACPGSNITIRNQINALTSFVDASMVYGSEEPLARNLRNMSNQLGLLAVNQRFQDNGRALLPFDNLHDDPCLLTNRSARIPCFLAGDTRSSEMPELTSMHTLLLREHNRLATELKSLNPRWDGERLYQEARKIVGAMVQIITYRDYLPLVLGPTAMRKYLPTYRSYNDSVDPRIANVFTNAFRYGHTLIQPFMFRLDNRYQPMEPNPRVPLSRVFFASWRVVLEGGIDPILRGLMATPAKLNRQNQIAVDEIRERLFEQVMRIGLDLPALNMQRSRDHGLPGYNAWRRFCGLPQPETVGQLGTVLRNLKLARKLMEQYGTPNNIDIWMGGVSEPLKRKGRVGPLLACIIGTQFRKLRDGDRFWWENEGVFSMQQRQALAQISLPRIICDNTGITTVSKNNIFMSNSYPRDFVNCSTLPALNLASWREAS

Going from “SPIN-agnetis (SPIN homolog from S. agnetis) (natural protein)” to “SPIN-delphini (SPIN from Staphylococcus delphini) (natural protein)”, the Kd rises from 41.8 nM to 310 nM (7.4-fold).

Compared with “SPIN-intermedius (SPIN homolog from S. intermedius) (natural protein)”, “SPIN-schleiferi (SPIN homolog from S. schleiferi) (natural protein)” is 4.3-fold lower in Kd: 984 nM for the first, 230 nM for the second.

Work on B1 yielded a Kd of 15.9 nM.

“SPIN-agnetis (SPIN homolog from S. agnetis) (natural protein)” and “SPIN-delphini (SPIN from Staphylococcus delphini) (natural protein)” are within 1.5-fold of each other in koff: 0.00236 s⁻¹ for the first, 0.00334 s⁻¹ for the second.

“SPIN-intermedius (SPIN homolog from S. intermedius) (natural protein)” and “SPIN-schleiferi (SPIN homolog from S. schleiferi) (natural protein)” are within 1.5-fold of each other in koff: 0.00334 s⁻¹ for the first, 0.00252 s⁻¹ for the second.

For B1, the koff was 0.00316 s⁻¹.

First: SPIN-agnetis (SPIN homolog from S. agnetis) (natural protein)
Second: SPIN-delphini (SPIN from Staphylococcus delphini) (natural protein)
The kon of the first is 5.2-fold higher: 56400 M⁻¹ s⁻¹ for the first, 10800 M⁻¹ s⁻¹ for the second.

Compared with “SPIN-intermedius (SPIN homolog from S. intermedius) (natural protein)”, “SPIN-schleiferi (SPIN homolog from S. schleiferi) (natural protein)” is 3.2-fold higher in kon: 3500 M⁻¹ s⁻¹ for the first, 11200 M⁻¹ s⁻¹ for the second.

For B1, the kon was 201000 M⁻¹ s⁻¹.
